Data reported in patent US20220177587A1, “METHODS AND USES OF VARIANT CD80 FUSION PROTEINS AND RELATED CONSTRUCTS” (Alpine Immune Sciences, Inc., priority 2018, published 2022).
Blank lines part the entries; values can stand above or below the molecule they belong to.

Assays:
CD28 [1] = target: T1, CD28 (Homo sapiens, UniProt P10747); assay: Flow binding to Jurkat/IL2 reporter cells (CD28); parameters: host or cells: Jurkat cells expressing an IL-2-luciferase reporter; details: Table E4; 33.3 nM; Jurkat cells (CD28)
How it was run: (§1)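 Binding EC50 and PE mean fluorescence intensity derived by flow cytometry using PE-labelled anti-human Fc secondary. Target cells were CTLA4- or PD-L1-transfected CHO lines and CD28-expressing Jurkat/IL2 reporter cells, stained with fusion proteins on ice for 45 min following BSA blocking.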

CD28 [2] = target: T1, CD28; assay: Jurkat/IL2 + K562/OKT3/PD-L1 reporter assay; format: cell-based; parameters: host or cells: Jurkat cells expressing an IL-2-luciferase reporter; details: Table E8; K562/OKT3/PD-L1 aAPC; 50 nM
huPD-L1 = huPD-L1 (Homo sapiens, UniProt Q9NZQ7); assay: Flow binding to CHO cells stably expressing PD-L1; parameters: huCTLA4 and huPD-L1, full-length mammalian surface expression constructs were generated; expressed in transfected cells; host or cells: CHO cells, lentiviral transduction, sorted to >98% purity; details: Table E4; 33.3 nM; CHO cells stably expressing PD-L1
How it was run: as §1

huCTLA4 = huCTLA4 (Homo sapiens, UniProt P16410); assay: Flow binding to CHO cells stably expressing CTLA4; parameters: huCTLA4 and huPD-L1, full-length mammalian surface expression constructs were generated; expressed in transfected cells; host or cells: CHO cells, lentiviral transduction, sorted to >98% purity; details: Table E4; 33.3 nM variant CD80 IgV-Fc; CHO cells stably expressing CTLA4
How it was run: as §1

Chain of huPD-L1 (Q9NZQ7 19-290): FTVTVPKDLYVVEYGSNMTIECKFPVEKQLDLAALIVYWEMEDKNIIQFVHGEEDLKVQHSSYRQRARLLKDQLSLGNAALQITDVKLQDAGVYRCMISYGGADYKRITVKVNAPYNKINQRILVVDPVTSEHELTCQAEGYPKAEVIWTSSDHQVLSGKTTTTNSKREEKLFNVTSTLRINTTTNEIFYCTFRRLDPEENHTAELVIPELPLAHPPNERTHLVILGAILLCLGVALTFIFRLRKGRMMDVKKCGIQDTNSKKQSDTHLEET
Chain of huCTLA4 (P16410 36-223): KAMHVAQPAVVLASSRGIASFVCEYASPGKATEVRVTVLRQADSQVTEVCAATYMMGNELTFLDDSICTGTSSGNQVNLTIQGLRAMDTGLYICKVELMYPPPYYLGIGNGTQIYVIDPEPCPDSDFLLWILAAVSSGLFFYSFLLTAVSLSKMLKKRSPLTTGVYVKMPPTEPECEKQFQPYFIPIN

B1: V22D/E35D/M47L/L85Q (protein)
chain: VIHVTKEVKEVATLSCGHNVSDEELAQTRIYWQKDKKMVLTMMSGDLNIWPEYKNRTIFDITNNLSIVILALRPSDEGTYECVVQKYEKDAFKREHLAEVTLSVKADFPTPSISDFETPTSNIRRIICSTSGGFPEPHLSWLENGEELNAINTTVSQDPETELYAVSSKLDFNMTTNHSFMCLIKYGHLRVNQTFNWNTTKQEHFPDN
modifications: CD80 v261 ECD
CD28 MFI at 33.3 nM (CD28 [1]): 542
Relative Luciferase Units (RLU), CD80-Fe Cone 50 nM (CD28 [2]): 1142 RLU

B2: T28Y/Q33H/E35D/D46V/M47I/A71G (protein)
chain: VIHVTKEVKEVATLSCGHNVSVEELAQYRIYWHKDKKMVLTMMSGVINIWPEYKNRTIFDITNNLSIVILGLRPSDEGTYECVVLKYEKDAFKREHLAEVTLSVKADFPTPSISDFETPTSNIRRIICSTSGGFPEPHLSWLENGEELNAINTTVSQDPETELYAVSSKLDFNMTTNHSFMCLIKYGHLRVNQTFNWNTTKQEHFPDN
modifications: CD80 v291 ECD
Fold Increase over WT CD80-IgV-Fe (CD28 [2]): 2.8
Relative Luciferase Units (RLU), CD80-Fe Cone 50 nM (CD28 [2]): 580 RLU

B5: Q33R/E35D/M47V/N48K/L85M/F92L (protein, UniProt P33681 35-288, looked up, variant Q33R E35D M47V N48K L85M F92L)
T-lymphocyte activation …: VIHVTKEVKEVATLSCGHNVSVEELAQTRIYWRKDKKMVLTMMSGDVKIWPEYKNRTIFDITNNLSIVILALRPSDEGTYECVVMKYEKDALKREHLAEVTLSVKADFPTPSISDFEIPTSNIRRIICSTSGGFPEPHLSWLENGEELNAINTTVSQDPETELYAVSSKLDFNMTTNHSFMCLIKYGHLRVNQTFNWNTTKQEHFPDNLLPSWAITLISVNGIFVICCLTYCFAPRCRERRRNERLRRESVRPV
modifications: Fc fusion
Relative Luciferase Units (RLU), CD80-Fe Cone 50 nM (CD28 [2]): 215 RLU
CTLA4 MFI at 33.3 nM (huCTLA4): 2680

B8: I30V/E35D/M47V/A71G/A91V (protein, UniProt P33681 35-288, looked up, variant I30V E35D M47V A71G A91V)
T-lymphocyte activation …: VIHVTKEVKEVATLSCGHNVSVEELAQTRVYWQKDKKMVLTMMSGDVNIWPEYKNRTIFDITNNLSIVILGLRPSDEGTYECVVLKYEKDVFKREHLAEVTLSVKADFPTPSISDFEIPTSNIRRIICSTSGGFPEPHLSWLENGEELNAINTTVSQDPETELYAVSSKLDFNMTTNHSFMCLIKYGHLRVNQTFNWNTTKQEHFPDNLLPSWAITLISVNGIFVICCLTYCFAPRCRERRRNERLRRESVRPV
Relative Luciferase Units (RLU), CD80-Fe Cone 50 nM (CD28 [2]): 1503 RLU
CTLA4 MFI at 33.3 nM (huCTLA4): 204756

B10: E35D/L85Q/K93T/E95V/L97Q (protein, UniProt P33681 35-288, looked up, variant E35D L85Q K93T E95V L97Q)
T-lymphocyte activation …: VIHVTKEVKEVATLSCGHNVSVEELAQTRIYWQKDKKMVLTMMSGDMNIWPEYKNRTIFDITNNLSIVILALRPSDEGTYECVVQKYEKDAFTRVHQAEVTLSVKADFPTPSISDFEIPTSNIRRIICSTSGGFPEPHLSWLENGEELNAINTTVSQDPETELYAVSSKLDFNMTTNHSFMCLIKYGHLRVNQTFNWNTTKQEHFPDNLLPSWAITLISVNGIFVICCLTYCFAPRCRERRRNERLRRESVRPV
Fold Increase over WT CD80-IgV-Fe (CD28 [2]): 1.5
Relative Luciferase Units (RLU), CD80-Fe Cone 50 nM (CD28 [2]): 315 RLU

B11: E35D/A71G (protein, UniProt P33681 35-288, looked up, variant E35D A71G)
T-lymphocyte activation …: VIHVTKEVKEVATLSCGHNVSVEELAQTRIYWQKDKKMVLTMMSGDMNIWPEYKNRTIFDITNNLSIVILGLRPSDEGTYECVVLKYEKDAFKREHLAEVTLSVKADFPTPSISDFEIPTSNIRRIICSTSGGFPEPHLSWLENGEELNAINTTVSQDPETELYAVSSKLDFNMTTNHSFMCLIKYGHLRVNQTFNWNTTKQEHFPDNLLPSWAITLISVNGIFVICCLTYCFAPRCRERRRNERLRRESVRPV
Relative Luciferase Units (RLU), CD80-Fe Cone 50 nM (CD28 [2]): 1190 RLU
CTLA4 MFI at 33.3 nM (huCTLA4): 184204
PD-L1 MFI at 33.3 nM (huPD-L1): 34149

B14: E35D/A71D/L72V/R73H/E81K (protein, UniProt P33681 35-288, looked up, variant E35D A71D L72V R73H E81K)
T-lymphocyte activation …: VIHVTKEVKEVATLSCGHNVSVEELAQTRIYWQKDKKMVLTMMSGDMNIWPEYKNRTIFDITNNLSIVILDVHPSDEGTYKCVVLKYEKDAFKREHLAEVTLSVKADFPTPSISDFEIPTSNIRRIICSTSGGFPEPHLSWLENGEELNAINTTVSQDPETELYAVSSKLDFNMTTNHSFMCLIKYGHLRVNQTFNWNTTKQEHFPDNLLPSWAITLISVNGIFVICCLTYCFAPRCRERRRNERLRRESVRPV
Relative Luciferase Units (RLU), CD80-Fe Cone 50 nM (CD28 [2]): 282 RLU

More lines, now with the values ahead:

CD28 MFI at 33.3 nM (CD28 [1]): 15452
Relative Luciferase Units (RLU), CD80-Fe Cone 50 nM (CD28 [2]): 1581 RLU
PD-L1 MFI at 33.3 nM (huPD-L1): 29803
B3: E35D/M47I/Y87Q/K89E (protein, UniProt P33681 35-288, looked up, variant E35D M47I Y87Q K89E)
T-lymphocyte activation …: VIHVTKEVKEVATLSCGHNVSVEELAQTRIYWQKDKKMVLTMMSGDINIWPEYKNRTIFDITNNLSIVILALRPSDEGTYECVVLKQEEDAFKREHLAEVTLSVKADFPTPSISDFEIPTSNIRRIICSTSGGFPEPHLSWLENGEELNAINTTVSQDPETELYAVSSKLDFNMTTNHSFMCLIKYGHLRVNQTFNWNTTKQEHFPDNLLPSWAITLISVNGIFVICCLTYCFAPRCRERRRNERLRRESVRPV

Relative Luciferase Units (RLU), CD80-Fe Cone 50 nM (CD28 [2]): 1315 RLU
B4: E35D/M38T/D46E/M47V/N48S (protein, UniProt P33681 35-288, looked up, variant E35D M38T D46E M47V N48S)
T-lymphocyte activation …: VIHVTKEVKEVATLSCGHNVSVEELAQTRIYWQKDKKTVLTMMSGEVSIWPEYKNRTIFDITNNLSIVILALRPSDEGTYECVVLKYEKDAFKREHLAEVTLSVKADFPTPSISDFEIPTSNIRRIICSTSGGFPEPHLSWLENGEELNAINTTVSQDPETELYAVSSKLDFNMTTNHSFMCLIKYGHLRVNQTFNWNTTKQEHFPDNLLPSWAITLISVNGIFVICCLTYCFAPRCRERRRNERLRRESVRPV

Relative Luciferase Units (RLU), CD80-Fe Cone 50 nM (CD28 [2]): 1535 RLU
CTLA4 MFI at 33.3 nM (huCTLA4): 209034
B6: E35D/T41S/M43I/M47L/A71G (protein, UniProt P33681 35-288, looked up, variant E35D T41S M43I M47L A71G)
T-lymphocyte activation …: VIHVTKEVKEVATLSCGHNVSVEELAQTRIYWQKDKKMVLSMISGDLNIWPEYKNRTIFDITNNLSIVILGLRPSDEGTYECVVLKYEKDAFKREHLAEVTLSVKADFPTPSISDFEIPTSNIRRIICSTSGGFPEPHLSWLENGEELNAINTTVSQDPETELYAVSSKLDFNMTTNHSFMCLIKYGHLRVNQTFNWNTTKQEHFPDNLLPSWAITLISVNGIFVICCLTYCFAPRCRERRRNERLRRESVRPV

Fold Increase over WT CD80-IgV-Fe (CD28 [2]): 3.3
Relative Luciferase Units (RLU), CD80-Fe Cone 50 nM (CD28 [2]): 680 RLU
B7: E35D/M38T/M43V/M47V/N48R/L85Q (protein, UniProt P33681 35-288, looked up, variant E35D M38T M43V M47V N48R L85Q)
T-lymphocyte activation …: VIHVTKEVKEVATLSCGHNVSVEELAQTRIYWQKDKKTVLTMVSGDVRIWPEYKNRTIFDITNNLSIVILALRPSDEGTYECVVQKYEKDAFKREHLAEVTLSVKADFPTPSISDFEIPTSNIRRIICSTSGGFPEPHLSWLENGEELNAINTTVSQDPETELYAVSSKLDFNMTTNHSFMCLIKYGHLRVNQTFNWNTTKQEHFPDNLLPSWAITLISVNGIFVICCLTYCFAPRCRERRRNERLRRESVRPV
modifications: Fc fusion

Relative Luciferase Units (RLU), CD80-Fe Cone 50 nM (CD28 [2]): 1094 RLU
CTLA4 MFI at 33.3 nM (huCTLA4): 278391
PD-L1 MFI at 33.3 nM (huPD-L1): 19250
B9: E35D/M43I/M47V/K89N (protein, UniProt P33681 35-288, looked up, variant E35D M43I M47V K89N)
T-lymphocyte activation …: VIHVTKEVKEVATLSCGHNVSVEELAQTRIYWQKDKKMVLTMISGDVNIWPEYKNRTIFDITNNLSIVILALRPSDEGTYECVVLKYENDAFKREHLAEVTLSVKADFPTPSISDFEIPTSNIRRIICSTSGGFPEPHLSWLENGEELNAINTTVSQDPETELYAVSSKLDFNMTTNHSFMCLIKYGHLRVNQTFNWNTTKQEHFPDNLLPSWAITLISVNGIFVICCLTYCFAPRCRERRRNERLRRESVRPV

CD28 MFI at 33.3 nM (CD28 [1]): 6237
Relative Luciferase Units (RLU), CD80-Fe Cone 50 nM (CD28 [2]): 1216 RLU
PD-L1 MFI at 33.3 nM (huPD-L1): 37146
B12: E35D/M47V/A71G/E88D (protein, UniProt P33681 35-288, looked up, variant E35D M47V A71G E88D)
T-lymphocyte activation …: VIHVTKEVKEVATLSCGHNVSVEELAQTRIYWQKDKKMVLTMMSGDVNIWPEYKNRTIFDITNNLSIVILGLRPSDEGTYECVVLKYDKDAFKREHLAEVTLSVKADFPTPSISDFEIPTSNIRRIICSTSGGFPEPHLSWLENGEELNAINTTVSQDPETELYAVSSKLDFNMTTNHSFMCLIKYGHLRVNQTFNWNTTKQEHFPDNLLPSWAITLISVNGIFVICCLTYCFAPRCRERRRNERLRRESVRPV

CD28 MFI at 33.3 nM (CD28 [1]): 1436
Relative Luciferase Units (RLU), CD80-Fe Cone 50 nM (CD28 [2]): 1256 RLU
B13: E35D/M47L/A71G/L85Q (protein, UniProt P33681 35-288, looked up, variant E35D M47L A71G L85Q)
T-lymphocyte activation …: VIHVTKEVKEVATLSCGHNVSVEELAQTRIYWQKDKKMVLTMMSGDLNIWPEYKNRTIFDITNNLSIVILGLRPSDEGTYECVVQKYEKDAFKREHLAEVTLSVKADFPTPSISDFEIPTSNIRRIICSTSGGFPEPHLSWLENGEELNAINTTVSQDPETELYAVSSKLDFNMTTNHSFMCLIKYGHLRVNQTFNWNTTKQEHFPDNLLPSWAITLISVNGIFVICCLTYCFAPRCRERRRNERLRRESVRPV
